Changes are numbered by the printed parent chain. Numbers in names are those of the source. Where two headings read alike, the source gives them in different places.
Tests used:
[1] = target: T1, hu-sCD47-6His; extracellular domain of human CD47 antigen with 6His-tag (human); assay: SPR Biacore
T1 construct: also called hCD47-his; soluble hCD47
From the text: (§1) An anti-human or anti-mouse IgG (Fc) was first immobilized on the surface of Serie S Sensor Chips CM5 using the human or mouse antibody capture and amine coupling kits, following the manufacturer's instructions (GE Healthcare). […] The mouse, chimerized or humanized antibodies to be tested were then captured onto the appropriate anti-mouse or anti-human IgG surface in all flow cells except flow cell 1 used as control, at concentration and contact time adjusted so that ˜300 RU were captured on the surface. Binding kinetics were studied by passing increasing concentrations of hCD47-his in a series of five 10 minute injections through all flow cells at a rate of 30 μL/min. […] Following the final injection, buffer was passed across each flow cell for 60 minutes (mouse) or 30 minutes (human) to monitor the dissociation of bound antigen. Regeneration of the binding surface was carried out at the end of the cycle by flowing 3 M MgCl₂ for 60 s at 20 μL/min followed by 10 mM glycine-HCl, pH 1.7 for 180 s at 10 μl/min (for human) or by flowing 10 mM glycine-HCl, ph 1.7 for 360 s at 10 μl/min (for mouse). A second cycle with the same antibodies but no antigen was run as a control. Kinetics binding constants were estimated by non-linear fitting of the sensogram data to the 1:1 binding model provided by the Biacore T200 evaluation software.

[2] = target: T2, human CD47 (hCD47) expressed on cells (human, UniProt Q08722 19-323); assay: flow cytometry, Raji cells
T2 construct: Transfected CHO cells or endogenous CD47 of human cells; also called CHO-hCD47; CD47 on Raji cells

[3] = target: T2, human CD47 (hCD47) expressed on cells; assay: flow cytometry, Raji cells, competition with hSIRPα
[4] = target: T3, mouse CD47 (mCD47) expressed on CHO cells (mouse, UniProt Q61735 19-303); assay: flow cytometry, CHO-mCD47 cells
T3 construct: whole, on cells; also called CHO-mCD47
T3 sequence (looked up): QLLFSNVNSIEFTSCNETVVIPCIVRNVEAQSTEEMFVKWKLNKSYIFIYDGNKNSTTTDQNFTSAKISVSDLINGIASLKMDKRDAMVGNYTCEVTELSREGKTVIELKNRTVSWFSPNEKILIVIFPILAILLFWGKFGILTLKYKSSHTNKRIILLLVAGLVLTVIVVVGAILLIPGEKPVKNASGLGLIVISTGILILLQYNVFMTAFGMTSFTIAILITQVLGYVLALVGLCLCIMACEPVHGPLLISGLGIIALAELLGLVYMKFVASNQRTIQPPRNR

[5] = target: T2, human CD47 (hCD47) expressed on cells; assay: cell-based or functional assay
[6] = target: T2, human CD47 (hCD47) expressed on cells; assay: flow cytometry, Raji cells; remark: listed apart in the source
Method: Raji cells (ATCC-CLL-86; 2×10⁵ cells/well of 96-well plate) were first incubated at +4° C. for 30 minutes with serial dilutions of anti-CD47 antibodies or control isotype antibody (in mIgG2a or mIgG1 format). The cells were then washed and incubated for 30 minutes at +4° C. with a PE-conjugated F(ab)′2 goat anti-mouse IgG antibody ( 1/100 dilution, Beckman Coulter). After washings, the fluorescence of the cells was analyzed by flow cytometry on an Accuri-C6 flow cytometer (BD Biosciences).
The delta of MFI, representing the difference between the intensity measured with the tested antibody and the intensity in the absence of antibody, was calculated for each antibody concentration and the values were plotted against the antibody concentrations. The EC50 values were then calculated by using a nonlinear regression analysis model of the GraphPad Prism software.

[7] = target: T2, human CD47 (hCD47) expressed on cells; assay: flow cytometry, hCD47-CHO cells, competition with His-hSIRPα
Method: Human CD47-transfected cells (3×10⁵ cells/well of 96-well plate) were first incubated at +4° C. for 30 minutes with serial dilutions of anti-CD47 antibodies or isotype control antibody (in mIgG2a or mIgG1 format). […] The percentage inhibition was plotted against antibody concentration and the IC50 values were calculated using a nonlinear regression analysis model of the GraphPad Prism software.

[8] = target: T1, hu-sCD47-6His; extracellular domain of …; assay: SPR Biacore T200, antibody captured, hCD47-his analyte;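 further: antibodies captured on anti-IgG (Fc) CM5 chip, five sequential 10 min antigen injections at rising concentrations, reference flow cell and antigen-free cycle as controls, 1:1 model fit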
From the text: as §1

[9] = target: T2, human CD47 (hCD47) expressed on cells; assay: flow cytometry on Raji cells, hIgG4 format: inhibition of hSIRPα binding to hCD47
[10] = target: T2, human CD47 (hCD47) expressed on cells; assay: flow cytometry, Raji cells, competition with hSIRPα; remark: listed apart in the source
[11] = target: T1, hu-sCD47-6His; extracellular domain of …; assay: SPR Biacore; remark: listed apart in the source
From the text: as §1

[12] = target: T2, human CD47 (hCD47) expressed on cells; assay: flow cytometry, Raji cells; remark: listed apart in the source
[13] = target: T2, human CD47 (hCD47) expressed on cells; assay: flow cytometry on Raji cells, hIgG4 format, delta MFI
[14] = target: T1, hu-sCD47-6His; extracellular domain of …; assay: SPR Biacore; remark: listed apart in the source
From the text: as §1

[15] = target: T1, hu-sCD47-6His; extracellular domain of …; assay: SPR Biacore; head read as x 10^-4
From the text: as §1

[16] = target: T3, mouse CD47 (mCD47) expressed on CHO …; assay: flow cytometry, CHO-mCD47 cells (not shown)
[17] = target: T2, human CD47 (hCD47) expressed on cells; assay: flow cytometry, Raji cells; remark: listed apart in the source
[18] = target: T2, human CD47 (hCD47) expressed on cells; assay: flow cytometry on Raji cells, hIgG4 format: inhibition of hSIRPα binding to hCD47; remark: listed apart in the source
[19] = target: T2, human CD47 (hCD47) expressed on cells; assay: flow cytometry, Raji cells, competition with hSIRPα; remark: listed apart in the source
[20] = target: T2, human CD47 (hCD47) expressed on cells; assay: flow cytometry on Raji cells, hIgG4 format, delta MFI; remark: listed apart in the source
[21] = target: T2, human CD47 (hCD47) expressed on cells; assay: flow cytometry on Raji cells, hIgG4 format: inhibition of hSIRPα binding to hCD47; remark: listed apart in the source
[22] = target: T2, human CD47 (hCD47) expressed on cells; assay: flow cytometry on Raji cells, hIgG4 format, delta MFI; remark: listed apart in the source
[23] = target: T2, human CD47 (hCD47) expressed on cells; assay: flow cytometry on Raji cells, hIgG4 format: inhibition of hSIRPα binding to hCD47; remark: listed apart in the source
[24] = target: T2, human CD47 (hCD47) expressed on cells; assay: flow cytometry on Raji cells, hIgG4 format, delta MFI; remark: listed apart in the source

B1: h22-VH3-VL3 (candidate 22.11) (antibody, human IgG4 S228P, kappa, V domains shown)
VH: QVQLQESGAEVKKPGASVKVSCKASGYTFTTYWMHWVRQAPGQGLEWMGMIHPNSGTTNYNEKFKSRVTMTRDTSTSTVYMELSSLRSEDTAVYYCTRSHYYDGHFSYWGQGTLVTVSS
VL: EIVLTQSPDSLAVSLGERATINCKSSQSLLNSRTRKNYLAWYQQKAGQSPKLLIYWASTRESGVPDRFSGSGSGTDFTLTIDSLQAEDVAVYYCKQSYNLWTFGGGTKVEIKR
notes: hIgG4-S228P/kappa
With B1 the Kd [1] was 10.9 nM, the koff [1] was 0.000306 s⁻¹ and the kon [1] was 28400 M⁻¹ s⁻¹. It also gave an EC50 [2] of 0.139 µg/mL and an IC50 [3] of 0.096 µg/mL.

B2: h22-VH4-VL3 (candidate 22.15) (antibody, human IgG4 S228P, kappa, V domains shown)
VH: B1 VH with Q5V, E6Q, A24G, M70L, T76I, V79A, S85R, R87T, E89D, L114M
VL: B1 VL
notes: hIgG4-S228P/kappa
Binder B2 has a Kd [1] of 12.1 nM, a koff [1] of 0.000351 s⁻¹ and a kon [1] of 29100 M⁻¹ s⁻¹. The EC50 [2] was 0.124 µg/mL and the IC50 [3] was 0.098 µg/mL.

B3: h22-VH4-VL4 (candidate 22.16) (antibody, human IgG4 S228P, kappa, V domains shown)
VH: B1 VH with Q5V, E6Q, A24G, M70L, T76I, V79A, S85R, R87T, E89D, L114M
VL: DIVMTQSPDSLPVSLGERATINCKSSQSLLNSRTRKNYLAWYQQKPGQPPKLLIYWASTRESGVPDRFTGSGSGTDFTLTISALQAEDVAVYYCKQSYNLWTFGQGTRLEIKR
notes: hIgG4-S228P/kappa
For B3, the Kd [1] was 9.37 nM, the koff [1] was 0.000263 s⁻¹ and the kon [1] was 28200 M⁻¹ s⁻¹. It also gave an EC50 [2] of 0.184 µg/mL and an IC50 [3] of 0.116 µg/mL.

B4: h22-VH3-VL4 (candidate 22.12) (antibody, human IgG4 S228P, kappa, V domains shown)
VH: B1 VH
VL: B3 VL
notes: hIgG4-S228P/kappa
B4 was tested, and the Kd [1] was 10 nM, the koff [1] was 0.000252 s⁻¹ and the kon [1] was 25200 M⁻¹ s⁻¹. The EC50 [2] was 0.108 µg/mL and the IC50 [3] was 0.116 µg/mL.

B5: Candidate 7 (VT008-AL5-10G7-10K7), mouse IgG (antibody, V domains shown)
VH: QVQLQQPGAELVMPGSSVKLSCKTSGYTFTKYWMHWVKRRPGQGLEWIGEINPSDTYTNYNQKFKGKSTLTVDKSSSTAYMQLSSLTSEDSAVYFCARVATMVARGFAYWGQGTLVTVSA
VL: DIVMTQSHKFMSTSVGDRVSITCKASQDVSGAVVWYQEKPGQSPNLLIYLATYRYTGVPDRFTGSGSGTDFTLTIRSVQAEDMAVYYCQQYYSIPWTFGGGTKLEIK
B5 was tested, and the binding result [4] was “no binding (tested: 7.3 µg/mL highest concentration)”, the “Phagocytic index, Raji cells and human macrophages, antibody at 0.125 µg/mL” value [5] was 124 Raji cells ingested per 100 macrophages and the EC50 [6] was 0.058 µg/mL. For the same binder, the IC50 [7] was 0.657 µg/mL, the Kd [8] was 1.94 nM and the koff [8] was 0.00037 s⁻¹. The kon [8] was 190000 M⁻¹ s⁻¹.

B6: h20-H3-L3Y (candidate 20.28), hIgG4-S228P (antibody, V domains shown)
VH: QVQLVQSGAEVKKPGASVKVSCKASGYSFTDYYINWVRQAPGQGLEWMGRIYPGIGNTYYNKKFKGRVTVTRDTSISTAHMELSSLRSDDTAVYYCARGHYGRGMDYWGQGTAVTVSS
VL: EIVLTQSPDSLAVSLGERATINCKSSQSLLNSIDQKNYLAWYQQKAGQSPKLLIYYASTKESGVPDRFSGSGSGTDFTLTIDSLQAEDVAVYYCQQHYSTPWTFGGGTKVEIKR
notes: also called H20-VH3-VL3,Y
In the case of B6, the “IC50 (read off the curve)” value [9] is reported as about 0.3 µg/mL, the IC50 [10] is reported as 0.17 µg/mL and the Kd [11] is reported as 2.32 nM. For the same binder, the koff [11] was 0.000573 s⁻¹, the kon [11] was 264000 M⁻¹ s⁻¹ and the EC50 [12] was 0.117 µg/mL. The “EC50 (read off the curve)” value [13] was about 0.1 µg/mL.

B7: h20-VH4-VL4 (candidate 20.19) (antibody, human IgG4 S228P, kappa, V domains shown)
VH: B6 VH with A16S, V70I, R72A, T74K, I76T, H80Y, D89E, A113T
VL: B6 VL with E1D, L4M, A46P, S49P, Y56F, D82S, Y93F, T108A
notes: hIgG4-S228P/kappa; also called h20-H4-L4
In the case of B7, the Kd [14] is reported as 4.15 nM, the kon [14] is reported as 179000 M⁻¹ s⁻¹ and the koff [15] is reported as 0.000685 s⁻¹. For the same binder, the binding result [16] was “no binding”, the EC50 [17] was 0.139 µg/mL and the “IC50 (read off the curve)” value [18] was about 0.3 µg/mL. The IC50 [19] was 0.192 µg/mL and the “EC50 (read off the curve)” value [20] was about 0.1 µg/mL.

B8: h20-H4-L5Y (candidate 20.30), hIgG4-S228P (antibody, V domains shown)
VH: B6 VH with A16S, V70I, R72A, T74K, I76T, H80Y, D89E, A113T
VL: B6 VL with E1D, L4M, A46P, S49P, D82S, S83G, Y93F, K113R
notes: also called H20-VH4-VL5,Y
B8 was tested, and the “IC50 (read off the curve)” value [21] was about 0.3 µg/mL, the IC50 [10] was 0.149 µg/mL and the Kd [11] was 2.82 nM. For the same binder, the koff [11] was 0.000693 s⁻¹, the kon [11] was 254000 M⁻¹ s⁻¹ and the EC50 [12] was 0.105 µg/mL. The “EC50 (read off the curve)” value [22] was about 0.1 µg/mL.

B9: h20-VH4-VL5 (candidate 20.20) (antibody, human IgG4 S228P, kappa, V domains shown)
VH: B6 VH with A16S, V70I, R72A, T74K, I76T, H80Y, D89E, A113T
VL: B6 VL with E1D, L4M, A46P, S49P, Y56F, D82S, S83G, Y93F, K113R
notes: hIgG4-S228P/kappa; also called h20-H4-L5
For B9, the “IC50 (read off the curve)” value [21] was about 0.3 µg/mL, the Kd [14] was 3.5 nM and the kon [14] was 192000 M⁻¹ s⁻¹. For the same binder, the koff [15] was 0.000624 s⁻¹, the binding result [16] was “no binding” and the EC50 [17] was 0.136 µg/mL. For the same binder, the IC50 [19] was 0.095 µg/mL and the “EC50 (read off the curve)” value [22] was about 0.1 µg/mL.

B10: h20-VH2-VL5 (candidate 20.10) (antibody, human IgG4 S228P, kappa, V domains shown)
VH: B6 VH with V70I, I76A, H80Y, D89E, A113L
VL: B6 VL with E1D, L4M, A46P, S49P, Y56F, D82S, S83G, Y93F, K113R
notes: hIgG4-S228P/kappa; also called h20-H2-L5
B10 was tested, and the Kd [14] was 5.85 nM, the kon [14] was 118000 M⁻¹ s⁻¹ and the “IC50 (read off the curve)” value [23] was about 0.2 µg/mL. For the same binder, the koff [15] was 0.000634 s⁻¹, the binding result [16] was “no binding” and the EC50 [17] was 0.191 µg/mL. For the same binder, the IC50 [19] was 0.051 µg/mL and the “EC50 (read off the curve)” value [24] was about 0.1 µg/mL.

B11: h20-H4-L4Y (candidate 20.29), hIgG4-S228P (antibody, V domains shown)
VH: B6 VH with A16S, V70I, R72A, T74K, I76T, H80Y, D89E, A113T
VL: B6 VL with E1D, L4M, A46P, S49P, D82S, Y93F, T108A
notes: also called H20-VH4-VL4,Y
B11 gave an IC50 [10] of 0.181 µg/mL, a Kd [11] of 2.61 nM and a koff [11] of 0.000761 s⁻¹. The kon [11] was 306000 M⁻¹ s⁻¹, the EC50 [12] was 0.147 µg/mL and the “IC50 (read off the curve)” value [18] was about 0.4 µg/mL. For the same binder, the “EC50 (read off the curve)” value [20] was about 0.1 µg/mL.

B12: h20-VH3-VL3 (candidate 20.13) (antibody, human IgG4 S228P, kappa, V domains shown)
VH: B6 VH
VL: B6 VL with Y56F
notes: hIgG4-S228P/kappa; also called h20-H3-L3
In the case of B12, the “IC50 (read off the curve)” value [9] is reported as about 0.2 µg/mL, the Kd [14] is reported as 3.05 nM and the kon [14] is reported as 214000 M⁻¹ s⁻¹. The koff [15] was 0.000594 s⁻¹, the binding result [16] was “no binding” and the EC50 [17] was 0.147 µg/mL. The “EC50 (read off the curve)” value [13] was about 0.08 µg/mL and the IC50 [19] was 0.173 µg/mL.

Reference: patent publication US20220356245A1 (FORTY SEVEN, published 2022)
